In patent publication US12534531 (MacroGenics, dated 2026):

How the values were obtained:
[1] = biological target: T1, biotinylated-soluble human LAG-3-Fc fusion protein (human, UniProt P18627 23-450, biotinylated (site not stated)); assay: FACS: inhibition of shLAG-3-Fc binding to MHC II on Daudi cells (column head prints EC50); SM; SD 1.2674
T1 construct: whole entry named; also called shLAG-3; shLAG-3-Fc; not shown: Fc
T1 sequence: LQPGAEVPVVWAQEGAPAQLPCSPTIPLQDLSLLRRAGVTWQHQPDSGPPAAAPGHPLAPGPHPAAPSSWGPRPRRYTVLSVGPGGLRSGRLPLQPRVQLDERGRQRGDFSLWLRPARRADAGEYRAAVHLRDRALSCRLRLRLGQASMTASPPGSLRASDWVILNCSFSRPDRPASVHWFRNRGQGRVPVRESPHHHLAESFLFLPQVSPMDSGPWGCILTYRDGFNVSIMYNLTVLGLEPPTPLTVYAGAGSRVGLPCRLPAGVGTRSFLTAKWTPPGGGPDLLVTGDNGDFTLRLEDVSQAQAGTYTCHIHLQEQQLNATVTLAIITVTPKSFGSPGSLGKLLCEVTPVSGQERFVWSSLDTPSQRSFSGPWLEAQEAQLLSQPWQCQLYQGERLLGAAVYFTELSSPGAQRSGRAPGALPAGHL

[2] = biological target: T2, human PD-1 expressed on the surface of cells (NSO cells expressing human PD-1; MNFAT-luc2/PD-1 Jurkat cells) (human, UniProt Q15116 21-288); assay: FACS saturation binding to NSO cells expressing PD-1; single experiment
T2 construct: also called cell surface PD-1; PDCD1 transfected NSO cells expressing PD-1

[3] = biological target: T2, human PD-1 expressed on the surface of …; assay: FACS: inhibition of sPD-L2 binding to PD-1 on NSO cells; SM; SD 0.0846
[4] = biological target: T2, human PD-1 expressed on the surface of …; assay: FACS: inhibition of sPD-L1 binding to PD-1 on NSO cells; SM; SD 0.1729
[5] = biological target: T3, human LAG-3 expressed on NSO cells (human, UniProt P18627 29-525); assay: FACS saturation binding to NSO cells expressing LAG-3; SM; SD 0.5770
T3 sequence: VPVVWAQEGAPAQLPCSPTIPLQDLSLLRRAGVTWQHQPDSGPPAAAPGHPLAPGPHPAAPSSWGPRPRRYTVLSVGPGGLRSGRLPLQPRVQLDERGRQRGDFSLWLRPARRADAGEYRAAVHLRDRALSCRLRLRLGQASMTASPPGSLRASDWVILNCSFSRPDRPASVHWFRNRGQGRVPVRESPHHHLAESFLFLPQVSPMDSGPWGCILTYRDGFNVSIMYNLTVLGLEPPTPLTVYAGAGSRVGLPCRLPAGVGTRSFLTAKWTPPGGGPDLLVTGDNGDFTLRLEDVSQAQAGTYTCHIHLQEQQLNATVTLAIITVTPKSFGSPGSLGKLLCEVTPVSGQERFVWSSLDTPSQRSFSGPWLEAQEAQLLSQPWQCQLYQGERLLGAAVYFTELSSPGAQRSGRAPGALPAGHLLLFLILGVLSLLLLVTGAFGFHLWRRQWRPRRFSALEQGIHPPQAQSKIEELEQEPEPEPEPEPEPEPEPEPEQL

[6] = biological target: T2, human PD-1 expressed on the surface of …; assay: FACS: inhibition of sPD-L2 binding to PD-1 on NSO cells; SM; SD 0.7891
[7] = biological target: T2, human PD-1 expressed on the surface of …; assay: FACS: inhibition of sPD-L1 binding to PD-1 on NSO cells; SM; SD 0.3581
[8] = biological target: T2, human PD-1 expressed on the surface of …; assay: FACS saturation binding to NSO cells expressing PD-1; SM; SD 0.6227
[9] = biological target: T1, biotinylated-soluble human LAG-3-Fc …; assay: FACS: inhibition of shLAG-3-Fc binding to MHC II on Daudi cells (column head prints EC50); SM; SD 3.3552
[10] = biological target: T3, human LAG-3 expressed on NSO cells; assay: FACS saturation binding to NSO cells expressing LAG-3; SM; SD 0.3045

T2 sequence (Q15116 21-288): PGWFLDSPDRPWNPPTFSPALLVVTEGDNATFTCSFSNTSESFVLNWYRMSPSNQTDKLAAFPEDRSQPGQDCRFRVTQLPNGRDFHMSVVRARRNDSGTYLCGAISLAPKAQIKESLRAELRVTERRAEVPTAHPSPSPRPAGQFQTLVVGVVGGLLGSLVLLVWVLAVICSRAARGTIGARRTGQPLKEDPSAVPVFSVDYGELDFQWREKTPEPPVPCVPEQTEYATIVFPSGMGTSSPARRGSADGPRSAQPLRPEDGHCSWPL

B1: DART F (bispecific antibody, human IgG1, kappa, L234A L235A)
chain 1: QVQLVQSGAEVKKPGASVKVSCKASGYSFTSYWMNWVRQAPGQGLEWIGVIHPSDSETWLDQKFKDRVTITVDKSTSTAYMELSSLRSEDTAVYYCAREHYGTSPFAYWGQGTLVTVSSASTKGPSVFPLAPSSKSTSGGTAALGCLVKDYFPEPVTVSWNSGALTSGVHTFPAVLQSSGLYSLSSVVTVPSSSLGTQTYICNVNHKPSNTKVDKRVEPKSCDKTHTCPPCPAPEAAGGPSVFLFPPKPKDTLYITREPEVTCVVVDVSHEDPEVKFNWYVDGVEVHNAKTKPREEQYNSTYRVVSVLTVLHQDWLNGKEYKCKVSNKALPAPIEKTISKAKGQPREPQVYTLPPSREEMTKNQVSLSCAVKGFYPSDIAVEWESNGQPENNYKTTPPVLDSDGSFFLVSKLTVDKSRWQQGNVFSCSVMHEALHAKYTQKSLSLSPG
chain 2: EIVLTQSPATLSLSPGERATLSCRASESVDNYGMSFMNWFQQKPGQPPKLLIHAASNQGSGVPSRFSGSGSGTDFTLTISSLEPEDFAVYFCQQSKEVPYTFGGGTKVEIKRTVAAPSVFIFPPSDEQLKSGTASVVCLLNNFYPREAKVQWKVDNALQSGNSQESVTEQDSKDSTYSLSSTLTLSKADYEKHKVYACEVTHQGLSSPVTKSFNRGEC
chain 3: QVQLVQSGAEVKKPGASVKVSCKASGYSFTSYWMNWVRQAPGQGLEWIGVIHPSDSETWLDQKFKDRVTITVDKSTSTAYMELSSLRSEDTAVYYCAREHYGTSPFAYWGQGTLVTVSSASTKGPSVFPLAPSSKSTSGGTAALGCLVKDYFPEPVTVSWNSGALTSGVHTFPAVLQSSGLYSLSSVVTVPSSSLGTQTYICNVNHKPSNTKVDKRVEPKSCDKTHTCPPCPAPEAAGGPSVFLFPPKPKDTLYITREPEVTCVVVDVSHEDPEVKFNWYVDGVEVHNAKTKPREEQYNSTYRVVSVLTVLHQDWLNGKEYKCKVSNKALPAPIEKTISKAKGQPREPQVYTLPPSREEMTKNQVSLWCLVKGFYPSDIAVEWESNGQPENNYKTTPPVLDSDGSFFLYSKLTVDKSRWQQGNVFSCSVMHEALHNHYTQKSLSLSPGGGGSGGGSGGGDIVMTQTPLSLSVTPGQPASISCKSSQSLLHSDAKTYLNWLLQKPGQPPERLIYLVSELDSGVPDRFSGSGSGTDFTLKISRVEAEDVGVYYCWQGTHFPYTFGGGTKVEIKGGGSGGGGQVQLVQSGAEVKKPGASVKVSCKASGYSFTSYWMNWVRQAPGQGLEWIGVIHPSDSETWLDQKFKDRVTITVDKSTSTAYMELSSLRSEDTAVYYCAREHYGTSPFAYWGQGTLVTVSSGGCGGGEVAALEKEVAALEKEVAALEKEVAALEK
chain 4: EIVLTQSPATLSLSPGERATLSCRASESVDNYGMSFMNWFQQKPGQPPKLLIHAASNQGSGVPSRFSGSGSGTDFTLTISSLEPEDFAVYFCQQSKEVPYTFGGGTKVEIKGGGSGGGGQVQLVQSGAEVKKPGASVKVSCKASGYTFTNYGMNWVRQAPGQGLEWMGWINTYTGESTYADDFEGRFVFSMDTSASTAYLQISSLKAEDTAVYYCARESLYDYYSMDYWGQGTTVTVSSGGCGGGKVAALKEKVAALKEKVAALKEKVAALKE
[1]
  IC50: 1530 nM
[2]
  EC50: 1430 nM
  EC90: 14600 nM
[3]
  IC50: 839 nM
[4]
  IC50: 570 nM
[5]
  EC50: 5010 nM

B2: DART G (bispecific antibody, human IgG1, kappa, L234A L235A)
chain 1: QVQLVQSGAEVKKPGASVKVSCKASGYTFTNYGMNWVRQAPGQGLEWMGWINTYTGESTYADDFEGRFVFSMDTSASTAYLQISSLKAEDTAVYYCARESLYDYYSMDYWGQGTTVTVSSASTKGPSVFPLAPSSKSTSGGTAALGCLVKDYFPEPVTVSWNSGALTSGVHTFPAVLQSSGLYSLSSVVTVPSSSLGTQTYICNVNHKPSNTKVDKRVEPKSCDKTHTCPPCPAPEAAGGPSVFLFPPKPKDTLYITREPEVTCVVVDVSHEDPEVKFNWYVDGVEVHNAKTKPREEQYNSTYRVVSVLTVLHQDWLNGKEYKCKVSNKALPAPIEKTISKAKGQPREPQVYTLPPSREEMTKNQVSLSCAVKGFYPSDIAVEWESNGQPENNYKTTPPVLDSDGSFFLVSKLTVDKSRWQQGNVFSCSVMHEALHAKYTQKSLSLSPG
chain 2: DIVMTQTPLSLSVTPGQPASISCKSSQSLLHSDAKTYLNWLLQKPGQPPERLIYLVSELDSGVPDRFSGSGSGTDFTLKISRVEAEDVGVYYCWQGTHFPYTFGGGTKVEIKRTVAAPSVFIFPPSDEQLKSGTASVVCLLNNFYPREAKVQWKVDNALQSGNSQESVTEQDSKDSTYSLSSTLTLSKADYEKHKVYACEVTHQGLSSPVTKSFNRGEC
chain 3: QVQLVQSGAEVKKPGASVKVSCKASGYTFTNYGMNWVRQAPGQGLEWMGWINTYTGESTYADDFEGRFVFSMDTSASTAYLQISSLKAEDTAVYYCARESLYDYYSMDYWGQGTTVTVSSASTKGPSVFPLAPSSKSTSGGTAALGCLVKDYFPEPVTVSWNSGALTSGVHTFPAVLQSSGLYSLSSVVTVPSSSLGTQTYICNVNHKPSNTKVDKRVEPKSCDKTHTCPPCPAPEAAGGPSVFLFPPKPKDTLYITREPEVTCVVVDVSHEDPEVKFNWYVDGVEVHNAKTKPREEQYNSTYRVVSVLTVLHQDWLNGKEYKCKVSNKALPAPIEKTISKAKGQPREPQVYTLPPSREEMTKNQVSLWCLVKGFYPSDIAVEWESNGQPENNYKTTPPVLDSDGSFFLYSKLTVDKSRWQQGNVFSCSVMHEALHNHYTQKSLSLSPGGGGSGGGSGGGEIVLTQSPATLSLSPGERATLSCRASESVDNYGMSFMNWFQQKPGQPPKLLIHAASNQGSGVPSRFSGSGSGTDFTLTISSLEPEDFAVYFCQQSKEVPYTFGGGTKVEIKGGGSGGGGQVQLVQSGAEVKKPGASVKVSCKASGYSFTSYWMNWVRQAPGQGLEWIGVIHPSDSETWLDQKFKDRVTITVDKSTSTAYMELSSLRSEDTAVYYCAREHYGTSPFAYWGQGTLVTVSSGGCGGGEVAALEKEVAALEKEVAALEKEVAALEK
chain 4: EIVLTQSPATLSLSPGERATLSCRASESVDNYGMSFMNWFQQKPGQPPKLLIHAASNQGSGVPSRFSGSGSGTDFTLTISSLEPEDFAVYFCQQSKEVPYTFGGGTKVEIKGGGSGGGGQVQLVQSGAEVKKPGASVKVSCKASGYSFTSYWMNWVRQAPGQGLEWIGVIHPSDSETWLDQKFKDRVTITVDKSTSTAYMELSSLRSEDTAVYYCAREHYGTSPFAYWGQGTLVTVSSGGCGGGKVAALKEKVAALKEKVAALKEKVAALKE
[6]
  IC50: 2550 nM
[7]
  IC50: 1600 nM
[8]
  EC50: 1150 nM
[9]
  IC50: 2060 nM
[10]
  EC50: 940 nM
